Results published in publication PMC8548916.

Target: Cnm1 (contact nucleus mitochondria 1) tagged with GFP on its C terminus (S. cerevisiae)
Assay: co-IP; GFP-Trap beads precipitate Cnm1-GFP from cleared yeast lysate (1% digitonin, 150 mM NaCl, 50 mM Tris-HCl pH 8.0, 5% glycerol, 1 mM MgCl2), 1 h at 4°C; Western blot with antibodies against GFP and mCherry; enrichment by densitometry

fold enrichment in the immunoprecipitate relative to Tom20: 2 fold
Substance: Tom70 tagged with mCherry on its C terminus (from UniProt P07213 1-617) (natural protein)
